Read-outs that look alike come from different tables or passages of the source.

Assay [1] concerns the target biotinylated human FcRn (human) (UniProt P55899). The experiment in a line: competition ELISA at pH 6: biotinylated human FcRn on neutravidin, competitor recombinant hIgG3 (m8), bound IgG3 detected. A general note: In an ELISA, binding on a coated surface is turned into a signal by an enzyme label.
For assay [2] the target is unchanged. The description is as above. The source holds these as a separate data set.
The target is the same in assay [3]. The experiment in a line: FcRn binding ELISA at pH 7: biotinylated human FcRn on neutravidin, anti-human IgG-Fc-HRP.
The target is the same in assay [4]. The experiment in a line: FcRn binding ELISA at pH 6: biotinylated human FcRn on neutravidin, anti-human IgG-Fc-HRP.
For assay [5] the target is unchanged. Description: competition ELISA at pH 6: biotinylated human FcRn on neutravidin, competitor recombinant hIgG3 (m8), bound IgG3 detected. The source holds these as a separate data set.
The target is the same in assay [6]. Description: FcRn binding ELISA at pH 6: biotinylated human FcRn on neutravidin, anti-human IgG-Fc-HRP. The source holds these as a separate data set.
Assay [7] has the same target. Description: FcRn binding ELISA at pH 7: biotinylated human FcRn on neutravidin, anti-human IgG-Fc-HRP. The source holds these as a separate data set.
Assay [8] addresses human IgE pre-bound on human basophils (human) (UniProt P01854). Description: cell-based or functional assay.

Sequence of biotinylated human FcRn (human) (P55899 24-297 limits assumed, chain 1 of 2): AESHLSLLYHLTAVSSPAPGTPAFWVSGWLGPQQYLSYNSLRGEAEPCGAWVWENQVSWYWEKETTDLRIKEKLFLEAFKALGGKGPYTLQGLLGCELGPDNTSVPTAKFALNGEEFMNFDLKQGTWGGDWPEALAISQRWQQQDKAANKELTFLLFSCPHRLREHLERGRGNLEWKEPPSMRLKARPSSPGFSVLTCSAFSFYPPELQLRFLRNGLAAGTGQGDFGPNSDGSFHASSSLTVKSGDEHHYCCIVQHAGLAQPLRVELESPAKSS
Sequence of biotinylated human FcRn (human) (chain, as listed by the source limits assumed, chain 2 of 2): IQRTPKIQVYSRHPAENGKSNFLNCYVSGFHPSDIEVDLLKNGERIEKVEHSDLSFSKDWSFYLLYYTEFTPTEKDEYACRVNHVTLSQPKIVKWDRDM

For Efgartigimod, the IC50 (read off the curve) was 0.6 nM in assay [1], 0.9 nM in assay [2] and 0.7 nM in assay [5]. For the same substance, the EC50 (read off the curve) (as a rule, the midpoint of the concentration-response curve) in assay [3] came out at 0.09 nM; in assay [4], 0.06 nM; in assay [6] it was 0.05 nM; in assay [7], 0.02 nM.
Irrelevant antibody showed a % of activated basophils (CCR3+CD63+) in assay [8] of 3%.

The values are drawn from patent US20220177604A1.
